In paper PMC7943604:

Tests used:
phosphorylated COPY^o2 = experiment: stopped-flow fluorescence (sensitized emission of the FRET sensor); COPY^o2 or phosphorylated COPY^o2 constant at 200 nM, tubulin titrated; dissociation at 200 nM COPY^o2 and 4 µM tubulin by displacement with 60 µM unlabeled stathmin; 25 °C; 80 mM PIPES pH 6.8, 75 mM KCl, 2 mM MgCl2, 20 mM β-mercaptoethanol, 60 µM GTP
[1] = molecular target: COPY^o2 (Atto532-stathmin-Atto647N); experiment: as above

“tubulin (αβ-heterodimer) (from UniProt P02550 1-451; P02554 1-445) (complex)” gave a KD, high affinity site (phosphorylated COPY^o2) of 610 µM, a KD, low-affinity site (phosphorylated COPY^o2) of 12 µM and a koff, high affinity site (phosphorylated COPY^o2) of 8 s⁻¹. The koff, low-affinity site (phosphorylated COPY^o2) was 2.3 s⁻¹, the kon, high affinity site (phosphorylated COPY^o2) was 12800 M⁻¹ s⁻¹ and the kon, low-affinity site (phosphorylated COPY^o2) was 170000 M⁻¹ s⁻¹. For the same substance, the KD, high affinity site [1] was 0.03 µM, the KD, low-affinity site [1] was 2 µM and the koff, high affinity site [1] was 0.048 s⁻¹. The koff, low-affinity site [1] was 1.86 s⁻¹, the kon, high affinity site [1] was 1.6e+06 M⁻¹ s⁻¹ and the kon, low-affinity site [1] was 900000 M⁻¹ s⁻¹. The stoichiometry N [1] was 2.
